We go through 2 proteins from PMC11988671, “SIRT7 Is a Lysine Deacylase with a Preference for Depropionylation and Demyristoylation” (International Journal of Molecular Sciences, 2025).

“And” between values parts separate entries of the source, which are not always exact repeats. Identical values can stand only once.

Substrate in data set [1]: NC(=O)c1ccc[n+]([C@@H]2O[C@H](COP(=O)([O-])OP(=O)(O)OC[C@H]3O[C@@H](n4cnc5c(N)ncnc54)[C@H](O)[C@@H]3O)[C@@H](O)[C@H]2O)c1
Description: Enzyme kinetics with variable NAD^+ (in vitro deacylation, Michaelis-Menten), SIRT7 in presence of RNA. Format: biochemical, mouse. The note with it: for Km: in the presence of RNA; for kcat: NAD^+-dependent deacylation. The method, then:
(§1) In the case of the SIRT1 enzymatic reaction, 8 µM peptide was incubated in 50 µL reaction buffer containing 10 mM NaCl, 10 mM KCl, 20 mM Tris-HCl pH 8.0, 1.0 mM NAD^+, and 1 mM DTT, with or without 1 µg recombinant SIRT1. The reaction mixtures were incubated for 24 h for SIRT7 or 2 h for SIRT1 at 37 °C.
(§2) For enzyme kinetics with variable concentrations of the NAD^+ substrate, an in vitro deacylation assay was performed using wild-type SIRT7 and SIRT1 with serial dilutions of the NAD^+ substrate. The reaction was incubated at 37 °C for the appropriate time, which was within the linear part of the progression curve (60 min for SIRT7 and 10 min for SIRT1). […] Each enzymatic assay was conducted in triplicate, and the resulting data were plotted and fitted to the Michaelis–Menten equation using GraphPad Prism version 8.0.2 (GraphPad Software, Boston, MA, USA).
(§3) The general conditions for electrospray ionization-MS were as follows: nebulizer gas, N2, delivered at 50 psi; nebulizer gas temperature, 250 °C; capillary voltage, 3500 V; and collision gas, G1 grade N2 (Taiyo Nippon Sanso Corporation, Tokyo, Japan).

Substrate in data set [2]: NC(=O)c1ccc[n+]([C@@H]2O[C@H](COP(=O)([O-])OP(=O)(O)OC[C@H]3O[C@@H](n4cnc5c(N)ncnc54)[C@H](O)[C@@H]3O)[C@@H](O)[C@H]2O)c1
Description: Enzyme kinetics with variable NAD^+ (in vitro deacetylation, Michaelis-Menten), SIRT1. The data set is classed as biochemical, mouse. The note with it: other: SIRT1 with the H3K9Ac peptide. The protocol: as §1, §2, §3

B1: SIRT7 (Mus musculus) (protein)
chain: MAAGGGLSRSERKAAERVRRLREEQQRERLRQVSRILRKAAAERSAEEGRLLAESEDLVTELQGRSRRREGLKRRQEEVCDDPEELRRKVRELAGAVRSARHLVVYTGAGISTAASIPDYRGPNGVWTLLQKGRPVSAADLSEAEPTLTHMSITRLHEQKLVQHVVSQNCDGLHLRSGLPRTAISELHGNMYIEVCTSCIPNREYVRVFDVTERTALHRHLTGRTCHKCGTQLRDTIVHFGERGTLGQPLNWEAATEAASKADTILCLGSSLKVLKKYPRLWCMTKPPSRRPKLYIVNLQWTPKDDWAALKLHGKCDDVMQLLMNELGLEIPVYNRWQDPIFSLATPLRAGEEGSHSRKSLCRSREEAPPGDQSDPLASAPPILGGWFGRGCAKRAKRKKVA
notes: HaloTag (N, cleaved yes); made in house; host or cells: E. coli K12 KRX
In the case of B1, the kcat/Km in data set [1] (other: acetyl H3K18 peptide) worked out at 0.844 ± 0.024 M⁻¹ s⁻¹; in data set [1] (other: butyryl H3K18 peptide), 2.10 ± 0.061 M⁻¹ s⁻¹; in data set [1] (other: myristoyl H3K18 peptide) it was 11.9 ± 0.695 M⁻¹ s⁻¹; in data set [1] (other: octanoyl H3K18 peptide), 3.74 ± 0.124 M⁻¹ s⁻¹; in data set [1] (other: palmitoyl H3K18 peptide), 2.35 ± 0.224 M⁻¹ s⁻¹; in data set [1] (other: propionyl H3K18 peptide), 10.9 ± 0.633 M⁻¹ s⁻¹. Also, the kcat/Km in data set [1] (other: succinyl H3K18 peptide) was found to be 2.01 ± 0.390 M⁻¹ s⁻¹. In addition, the Km is 445.3 ± 28.5 µM in data set [1] (other: acetyl H3K18 peptide (H3K18Ac)); 678.6 ± 83.6 µM in data set [1] (other: butyryl H3K18 peptide); 153 µM and 153.2 ± 8.8 µM in data set [1] (other: myristoyl H3K18 peptide); 470.0 ± 16.7 µM in data set [1] (other: octanoyl H3K18 peptide); 633 µM and 633.5 ± 37.5 µM in data set [1] (other: palmitoyl H3K18 peptide); 185.1 ± 7.6 µM in data set [1] (other: propionyl H3K18 peptide). In addition, the Km in data set [1] (other: succinyl H3K18 peptide) is 114 µM and 114.9 ± 30.4 µM. The kcat in data set [1] (other: acetyl H3K18 peptide) amounted to 0.000376 ± 1.52e-05 s⁻¹; in data set [1] (other: butyryl H3K18 peptide), 0.00143 ± 0.00015 s⁻¹; in data set [1] (other: myristoyl H3K18 peptide), 0.00183 ± 8.23e-05 s⁻¹; in data set [1] (other: octanoyl H3K18 peptide) it was 0.00176 ± 6.48e-05 s⁻¹; in data set [1] (other: palmitoyl H3K18 peptide) it was 0.00149 ± 0.000101 s⁻¹; in data set [1] (other: propionyl H3K18 peptide), 0.00202 ± 4.14e-05 s⁻¹. For the same protein, the kcat in data set [1] (other: succinyl H3K18 peptide) is 0.000224 ± 1.68e-05 s⁻¹.

B2: SIRT1 (Mus musculus) (protein)
chain: MADEVALALQAAGSPSAAAAMEAASQPADEPLRKRPRRDGPGLGRSPGEPSAAVAPAAAGCEAASAAAPAALWREAAGAAASAEREAPATAVAGDGDNGSGLRREPRAADDFDDDEGEEEDEAAAAAAAAAIGYRDNLLLTDGLLTNGFHSCESDDDDRTSHASSSDWTPRPRIGPYTFVQQHLMIGTDPRTILKDLLPETIPPPELDDMTLWQIVINILSEPPKRKKRKDINTIEDAVKLLQECKKIIVLTGAGVSVSCGIPDFRSRDGIYARLAVDFPDLPDPQAMFDIEYFRKDPRPFFKFAKEIYPGQFQPSLCHKFIALSDKEGKLLRNYTQNIDTLEQVAGIQRILQCHGSFATASCLICKYKVDCEAVRGDIFNQVVPRCPRCPADEPLAIMKPEIVFFGENLPEQFHRAMKYDKDEVDLLIVIGSSLKVRPVALIPSSIPHEVPQILINREPLPHLHFDVELLGDCDVIINELCHRLGGEYAKLCCNPVKLSEITEKPPRPQKELVHLSELPPTPLHISEDSSSPERTVPQDSSVIATLVDQATNNNVNDLEVSESSCVEEKPQEVQTSRNVENINVENPDFKAVGSSTADKNERTSVAETVRKCWPNRLAKEQISKRLEGNQYLFVPPNRYIFHGAEVYSDSEDDVLSSSSCGSNSDSGTCQSPSLEEPLEDESEIEEFYNGLEDDTERPECAGGSGFGADGGDQEVVNEAIATRQELTDVNYPSDKS
notes: as for B1
Turning to B2, the Km in data set [2] came out at 14 µM.

For orientation: kcat/Km means the turnover number divided by the Michaelis constant. By Km is commonly meant the concentration of substrate that gives half-maximal velocity. The kcat is the number of substrate molecules converted per active site and unit of time at saturation.
